The target of experiment [1] is recombinant isoform of human Angiotensin Converting Enzyme (rhACE) corresponding to the ectodomain somatic ACE (human), P12821. As to the kind of experiment: cell-based or functional assay.
The target in experiment [2] is recombinant isoform of human Angiotensin Converting Enzyme (rhACE) corresponding to the ectodomain somatic ACE (human) (UniProt P12821). Nature of the experiment: cell-based or functional assay.
Experiment [3] has the same target. As to the kind of experiment: Enzyme inhibition of rhACE with fluorogenic substrate, Dixon plot and KI=IC50/(1+[S]/Km); 45 min pre-incubation, hydrolytic conditions.

No end group written: not given here.

Sequence of recombinant isoform of human Angiotensin Converting Enzyme (rhACE) corresponding to the ectodomain somatic ACE (human), P12821 (P12821 30-1256): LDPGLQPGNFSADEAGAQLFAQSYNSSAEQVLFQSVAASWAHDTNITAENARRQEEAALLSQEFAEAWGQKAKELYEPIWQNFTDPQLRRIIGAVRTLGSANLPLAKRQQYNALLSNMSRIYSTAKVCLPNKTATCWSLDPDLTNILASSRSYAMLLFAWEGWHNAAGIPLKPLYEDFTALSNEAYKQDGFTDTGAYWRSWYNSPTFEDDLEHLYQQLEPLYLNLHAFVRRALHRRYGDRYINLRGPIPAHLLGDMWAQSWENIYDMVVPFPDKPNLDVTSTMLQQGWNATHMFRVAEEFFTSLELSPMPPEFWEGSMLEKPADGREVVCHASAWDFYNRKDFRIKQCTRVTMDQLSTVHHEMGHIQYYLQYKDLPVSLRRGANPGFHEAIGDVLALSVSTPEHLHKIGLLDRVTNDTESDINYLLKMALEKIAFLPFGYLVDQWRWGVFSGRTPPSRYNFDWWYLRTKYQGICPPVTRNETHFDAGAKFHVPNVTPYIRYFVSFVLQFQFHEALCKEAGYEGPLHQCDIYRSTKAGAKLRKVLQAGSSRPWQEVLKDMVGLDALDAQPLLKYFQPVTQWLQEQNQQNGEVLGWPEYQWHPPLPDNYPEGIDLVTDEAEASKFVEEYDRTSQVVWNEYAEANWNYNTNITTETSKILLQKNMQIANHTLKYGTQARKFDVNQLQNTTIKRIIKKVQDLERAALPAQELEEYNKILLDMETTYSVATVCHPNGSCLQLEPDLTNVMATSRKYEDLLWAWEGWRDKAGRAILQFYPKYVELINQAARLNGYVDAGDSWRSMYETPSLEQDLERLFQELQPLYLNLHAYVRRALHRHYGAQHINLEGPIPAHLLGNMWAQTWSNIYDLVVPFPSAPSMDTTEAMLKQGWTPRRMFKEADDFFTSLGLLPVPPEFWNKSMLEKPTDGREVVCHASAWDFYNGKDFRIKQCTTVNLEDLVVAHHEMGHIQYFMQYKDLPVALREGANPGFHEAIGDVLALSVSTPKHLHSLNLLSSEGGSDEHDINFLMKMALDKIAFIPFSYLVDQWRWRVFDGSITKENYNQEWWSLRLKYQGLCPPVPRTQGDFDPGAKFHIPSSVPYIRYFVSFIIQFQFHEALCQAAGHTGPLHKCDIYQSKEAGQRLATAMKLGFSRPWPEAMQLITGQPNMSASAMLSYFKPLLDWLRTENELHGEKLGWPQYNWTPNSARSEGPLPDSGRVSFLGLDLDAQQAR
Sequence of recombinant isoform of human Angiotensin Converting Enzyme (rhACE) corresponding to the ectodomain somatic ACE (human) (P12821 30-1256): as above

Regarding YIHPF [TyrIleHisProPhe (YIHPF, Angiotensin II 4-8) peptide, metal-free], the IC50 of rhACE inhibition (fluorogenic substrate cleavage) in experiment [1] was over 100 µM.
As to GGH [GlyGlyHis (GGH) peptide, metal-free], the IC50 of rhACE inhibition (fluorogenic substrate cleavage) in experiment [1] is over 100 µM.
Same read-out and setting: the same measure for YIHPF (also: Cu(II) complex bound by ATCUN motif) [[YIHPF-Cu]- copper(II) complex of YIHPF]: over 100 µM; for Gly-Gly-His (also: Cu(II) complex bound by ATCUN motif) [[GGH-Cu]- copper(II) complex of GGH]: over 100 µM.
With KGHK (also: Cu(II) complex bound by ATCUN motif (free N-term, two peptide N, His3)) [[KGHK-Cu]+ copper(II) complex of KGHK], in experiment [2], the IC50 of rhACE inhibition (fluorogenic substrate cleavage) is 11 µM. In addition, the Ki (usually a dissociation constant, usually derived from enzyme kinetics or from competition with a known ligand) in experiment [3] came out at 4 µM.
For KGHK [LysGlyHisLys (KGHK) peptide, metal-free], in experiment [1], the IC50 of rhACE inhibition (fluorogenic substrate cleavage) was over 100 µM.

The record behind these values is patent US8445431.
